B1: anti-c-Met single-arm antibody 22 (antibody, human IgG1, kappa, L234A L235A)
heavy: not shown
light: DIVMTQSPSSVSASVGDRVTITCRASQGISSWLAWYQQKPGKAPKLLIYAASSLQSGVPSKFSGSGSGTEFTLTISSLQPEDFATYFCQQAYGFPLTFGGGTKVEIKRTVAAPSVFIFPPSDEQLKSGTASVVCLLNNFYPREAKVQWKVDNALQSGNSQESVTEQDSKDSTYSLSSTLTLSKADYEKHKVYACEVTHQGLSSPVTKSFNRGEC
chain: not shown
notes: made in Expi-CHO
B2: anti-c-Met single-arm antibody 136 (antibody, human IgG1, kappa, L234A L235A)
heavy: not shown
light: DIVMTQSPSSVSASVGDRVTITCRASQGISSWLAWYQQKPGKAPKLLIYAVSSLQSGVPSRFSGSGSGTDFTLTISSLQPEDFATYFCQQANSFPLTFGGGTKVEIKRTVAAPSVFIFPPSDEQLKSGTASVVCLLNNFYPREAKVQWKVDNALQSGNSQESVTEQDSKDSTYSLSSTLTLSKADYEKHKVYACEVTHQGLSSPVTKSFNRGEC
chain: not shown
notes: made in Expi-CHO
B3: anti-c-Met single-arm antibody 74 (antibody, human IgG1, kappa, L234A L235A)
heavy: not shown
light: DIVMTQSPSSVSASVGDRVTITCRASQGINSWLAWYQQKPGKAPNLLIYAASSLQSGVPSRFSGRGSGTDFSLTISSLHPEDFATYYCQQAKGFPLTFGGGTKVEIKRTVAAPSVFIFPPSDEQLKSGTASVVCLLNNFYPREAKVQWKVDNALQSGNSQESVTEQDSKDSTYSLSSTLTLSKADYEKHKVYACEVTHQGLSSPVTKSFNRGEC
chain: not shown
notes: made in Expi-CHO
B4: anti-c-Met single-arm antibody 187 (antibody, human IgG1, kappa, L234A L235A)
heavy: not shown
light: DIVMTQSPSSVSASVGDRVTITCRASQGISSWLAWYQQKPGKAPNLLIYAASNLPSGVPSRFSGSGSGTVFTLTISSLQPEDFATYYCQQSNSFPLTFGGGTKVEIKRTVAAPSVFIFPPSDEQLKSGTASVVCLLNNFYPREAKVQWKVDNALQSGNSQESVTEQDSKDSTYSLSSTLTLSKADYEKHKVYACEVTHQGLSSPVTKSFNRGEC
chain: not shown
notes: made in Expi-CHO
B5: anti-c-Met single-arm antibody 223 (antibody, human IgG1, kappa, L234A L235A)
heavy: not shown
light: DIQLTQSPSSLSASVGDRVTITCRASQSIITYLNWYQQKPGKAPKLLIYAASSLQSGVPSRFSGSGSGTDFTLNISSLQPEDFATYYCQQANSLPYTFGQGTKVEIKRTVAAPSVFIFPPSDEQLKSGTASVVCLLNNFYPREAKVQWKVDNALQSGNSQESVTEQDSKDSTYSLSSTLTLSKADYEKHKVYACEVTHQGLSSPVTKSFNRGEC
chain: not shown
notes: made in Expi-CHO
B6: anti-c-Met single-arm antibody 23 (antibody, human IgG1, kappa, L234A L235A)
heavy: not shown
light: DIVMTQSPSSLSASVGDRVTITCRASQSFSDYLNWYRQKPGKAPKLLLFAASSLQSGVPSRFSGSGSGTDFTLTISSLQPEDFATYYCQQSYSPPYTFGQGTKLEIKRTVAAPSVFIFPPSDEQLKSGTASVVCLLNNFYPREAKVQWKVDNALQSGNSQESVTEQDSKDSTYSLSSTLTLSKADYEKHKVYACEVTHQGLSSPVTKSFNRGEC
chain: not shown
notes: made in Expi-CHO
B7: anti-c-Met single-arm antibody 221 (antibody, human IgG1, kappa, L234A L235A)
heavy: not shown
light: EIVLTQSPGTLSLSPGERATLSCRASQSVSSSYLAWYQQKPGQAPRLLIYGPSSRATGIPDRFSGSGSGTDFTLTISSLQPADFASYYCQQSYITPYTFGQGTKVEIKRTVAAPSVFIFPPSDEQLKSGTASVVCLLNNFYPREAKVQWKVDNALQSGNSQESVTEQDSKDSTYSLSSTLTLSKADYEKHKVYACEVTHQGLSSPVTKSFNRGEC
chain: not shown
notes: made in Expi-CHO

What follows are binders tested against monkey c-Met (recombinant protein) (monkey) (assay: BLI (ForteBio), antibody on AHQ sensor, monkey c-Met in solution, 1:1 model).
For B1, the Kd was 19 nM, the koff was 0.00259 s⁻¹ and the kon was 136000 M⁻¹ s⁻¹.
Binder B2 has a Kd of 1.16 nM, a koff of 0.000426 s⁻¹ and a kon of 369000 M⁻¹ s⁻¹.
In the case of B3, the Kd is reported as 9.7 nM, the koff is reported as 0.0026 s⁻¹ and the kon is reported as 269000 M⁻¹ s⁻¹.
Work on B4 yielded a Kd of 2.92 nM, a koff of 0.000947 s⁻¹ and a kon of 324000 M⁻¹ s⁻¹.
In the case of B5, the Kd is reported as 16.2 nM, the koff is reported as 0.00109 s⁻¹ and the kon is reported as 67300 M⁻¹ s⁻¹.
Binder B6 has a Kd of 26.5 nM, a koff of 0.00151 s⁻¹ and a kon of 56900 M⁻¹ s⁻¹.
B7 showed a Kd of 63.8 nM, a koff of 0.00192 s⁻¹ and a kon of 30100 M⁻¹ s⁻¹.

From patent US20260242488A1 (BIOTHEUS, published 2026)
